This passage reports response results from PMC13423832.

This test has as its target COX4I1. The experiment in a line: AP-MS (FLAG affinity purification, protein intensity). The following applies: HEK293T transiently overexpressing FLAG-tagged COX5A; n = 3 biological replicates, mean ± SD; parent: est. 1.1e10; read off a plot.
Regarding “COX5A-FLAG, wild type (from UniProt P20674) D81W”, the response turned out to be 2.5e+10 intensity. The result for “COX5A-FLAG, wild type (from UniProt P20674) T79G” reads 6e+09 intensity; that for “COX5A-FLAG, wild type (from UniProt P20674) Y80W”, 5e+09 intensity.
